Measured values published in patent publication US20070292895.

Key:
[1] = molecular target: statine-Val (a peptide BACE-1 inhibitor)
[2] = molecular target: T1, coumarin-labeled 10-mer peptide substrate REVNFEVEFR
T1 chain: REVNFEVEFR

B1: mouse brain BACE-1 (MES membrane preparation from wild-type mice) (protein)
chain: ETDEESEEPGRRGSFVEMVDNLRGKSGQGYYVEMTVGSPPQTLNILVDTGSSNFAVGAAPHPFLHRYYQRQLSSTYRDLRKGVYVPYTQGKWEGELGTDLVSIPHGPNVTVRANIAAITESDKFFINGSNWEGILGLAYAEIARPDDSLEPFFDSLVKQTHIPNIFSLQLCGAGFPLNQTEALASVGGSMIIGGIDHSLYTGSLWYTPIRREWYYEVIIVRVEINGQDLKMDCKEYNYDKSIVDSGTTNLRLPKKVFEAAVKSIKAASSTEKFPDGFWLGEQLVCWQAGTTPWNIFPVISLYLMGEVTNQSFRITILPQQYLRPVEDVATSQDDCYKFAVSQSSTGTVMGAVIMEGFYVVFDRARKRIGFAVSACHVHDEFRTAAVEGPFVTADMEDCGYNIPQTDESTLMTIAYVMAAICALFMLPLCLMVCQWRCLRCLRHQHDDFADDISLLK
With B1 the “substrate cleavage (HPLC product peak), brain extract” value [1] was “BACE-1 inhibitor's Stat(V) and Merck-3 led to complete abolition of substrate cleavage” and the “hydrolysis of substrate (HPLC)” value [2] was “hydrolysis was observed to be about 15% of total substrate that had been added in the reaction”.
